Test results published in the DeepSol protein solubility set.

assay: soluble on expression in E. coli; label from the status in PepcDB or PDB records

Row | Sequence | soluble on expression in E. coli
1 | MGSDKIHHHHHHVRALVVSVDNTARREGDTGRRVGMQPPEPPFPHNEKESTAVNFKEMQATLMHELRLYHYPVAVKFFFDQAEVDKFKAETEYYTPLKAMTFCQWQIAARMKGQTVYSEREGLGCSNAVFSFGWKDLDEAEVKSHAKYCKDLDQAKRFVETKSRLPEGLIGIAVAPLADATFMPDTVHFYCDNMQAYHLAVDYMAATDTHPLRPQITMNSSACGGNVYTMVEKQFNMLPACSGSYNAGKTERGEINVIIPGEQMQMVYERLLERMEKLGSSSITKPGDGFPGADVCKNCPLIVFKKAKD | not soluble
2 | MGSDKIHHHHHHVSSSLKDIQNKNQELDTKKQILSALNIRDVKDADAEYNKYVKGDMLMNVDGTLTENTDGFSISYEKEAKENNRLHVFVCEVDGETKYVVPVYGAGLWGAIWGYVALNADKDTVYGVYFSHASETPGLGAEIAGAAFQNEFSGKKVLKDGQVALAVEKNGKVTDPAYQVDGISGGTITSKGVDAMIKACLSQYDKFLTNN | not soluble
3 | MGSDKIHHHHHHVTALSIIKEAEHSLQMLFNELEEIAYTNQVRVIEAFHKHRVREYYFYPSTGYGYGDSGRDALEDIFADIFGTEDALVRSQVVSGTHAISACLFALLRPGDELISLTGSPYDTLCRIIGHEEKSPGTLIDKGIKYSEVDLDERGKPDLTAIAAAIKDTSRMVLIQRSRGYKTRPPVDLDTIAAITKLVKARNPATIVMLDNCYGEFTAVQEPGHYGVDIIAGSLIKNPGGGLIPSGGYIAGNQDLIEQLAFHLTAPGLGKELGASLLDKRIMYQGLFLAPHTVLQALKGAVLLAYVFEEHGYEVFPRWNEKRSDIVQAVKLRDAAEVLRFCQEVQNASPVDSDVTLEYGELPAYRDKIVMAAGTFVQGSSIELSCDAPLRSPHCVFLQGGLSYEHCRFLLQRLLDRFLLANA | not soluble
4 | MGSDKIHHHHHHVTQNSPRQLSLPVYLPDDETFQSYYPASGNDELIQKLQASAQGGLSSSLYIYGPVKSGRTHLMHAACALANDKDRRTLYIPLGIHASISPALFEGLESLELICIDDIDAIAGHPIWEEAIFHLYNRIAEHKDCHLIVSGKASPTEAGFLLPDLVSRMQWGLIYQLQPMADDEKLLALQRRAAMRGLQLSDEVGRFLLTRMARDLRTLFDVLDKLDKASMVHQRKLTIPFIKEMLRL | not soluble
5 | MGSDKIHHHHHHVTYVRNNALHCGPLPQHVTAPSFRSGTGFYETLLYNGCRLVNADAHMERITRSARACGLHLLPVDLHAAAQMLLDHLGLCGSMARINLFYTLENAPAADASGLCPPLVPAVTAAPYTPPPADKAFRLCRALHGVQSWWHEHKTTAHMGHLMERTHAQAAGYDDAVLHLPDGAILETTTAALIFYNGSRFTAPFPRFRLSSTAEALVKDVLGITYEKITADRLGCMQHAYVLNALMGMRPVRSIDTAEFNPDTDLCNEMTVLIQKAA | not soluble
6 | MGSDKIHHHHHHVVLAVVVGRRTASLALRGRGGRSKGGIHLPQNRIRFGSVGCRDLRSQLRRLIEDETMSEPAEAFYLPLGDNRYEPTRATESPWDSQAQHGGPPTALLGHLLDTAAGPDKRLARITADFLGAIPRRPFRVDTVEIRPGRRIALLEARMVFDDRPAVVARAWAIETGPTPPATGEQLHPPALADADPALDLTGWGYGEAIEWRYTRGGYGTADSAADVWTRVRIPLIAGEKLTGLARTLVVADSANGVSAALPMEHWLFIPPSITVTLARFPDTEWVHMACRSHLSPDGLGVSHATLSDTDGYLGEVSQPLLVRPR | not soluble
7 | MGSDKIHHHHHHYGAQAYGMGGGGGGYNRPMNSYGNGYNNGGGFNNYGNGGGFGGNNYNNGPPPFDGGYNRPYGGGGGGGYGRPQGYVPPPPPPPTQPEPEPEPRPEPQPEPQPEPQPEPQPEPQPEPHPEPAPEPIVKPYNSYAQPHNSYVRYGGK | not soluble
8 | MGSDKIHHHHHHYMDTIPTENVSFTTVSTSLDNLYLALNGIHRKMVSQDLGNQGLGGEPGFIIGREALADDLTWDTQTWHQGFLNWSYPTNATSSYNSGEWETYYKFILNANNILKALNDNFSDESKLTDSEKALANHIKGECLAIRAWSHFNLVQYYAKPYRNGQDNSQPGVPYRTSPEIEPMARNTVEEVYTKIHGDLDEALNLLADYEPNDKNHYSLASVYGLKARALLTQQKYADAATAAVNSINEAEKDGCKIMSQSELMNGFANITSATKEAMYAAMTQNDQTVYFYSFYAYMSWNFNSSSIRTGIKCISQSTYDLMSPTDLRRQWWDPTGKAEVPATSYNQRVYQNRKFTARSTADAVGDFAFMRISEMYLTAAEAFARSNQDAKAKEYLQALLKERDPEYKDLGNTGAKLADEIMTHRRIELWGEGFRWFDLKRLGLPLDRTGSNFDATFCGFLHKDPNADGWIFEIPKKETDFNDLIEKNY | not soluble
9 | MGSDKIHHHHHHYPEPVLNPESCTSIMVGKKASADGSVMTSHTCDSNYRTWMDIVPSASYDHDTTTTVYTGRMHTEYAEGTRGMIAKGTLPEARSTYQFLNTAYPCLNEKQLGIGETTITGRKALVNKKGMFMIEELQRIALQRCTTARDAIRLMGELIEKYGYGDWGECLTIADPKEVWHFEVFGEGPDKIGGVWAAIRIPDDHVGVSANIPRISKVDPSDKENCMASANVFEVAKRMGFWDGKKPFRFWEAYGGGNYSGELKSFSIREFFILNKLAPSLHLSYDAEELPISVKPEKPVDVTDVMALLSETYEGTEYDMTKNLKVAVKKKDSNETDTIISPVANPWMTTDMVNMLNGLRPDAVKRYRLVAVPQCSYSTVIQLRDWLPDAVGGVVWMAYDNPGQSPRIPIFCGTKDLPACFKVCGQHRYREDAAVWAFRRANKLATVRWGATKDRMKASIAHFTEKGQTELPFVESRYKEILTQQGEEAAKEYLTGYTADFAGATMLRWREMGDSFWTQFERGF | not soluble
10 | MGSDKIHHHHHHYTEQPIDLVPTQPLPNASFDNFKLTCSNTKFADDLNQMTGFTKPASRELSVTFFPDLNGDVVAIDYRHYSASFKKGAKLLHKPIVWHINQATTKTTFKPNTWCLRCLWSTKPVDT | soluble
11 | MGSIISRTIPGQGHGNQYYPGVQWDVRDSAWRYVTILDLPFSLVFDTLLLPIDIHHGPYELEHHHHHH | not soluble
12 | MGSQAAHMMSMDFEDFPVESAHRILTPRPTVMVTTVDEEGNINAAPFSFTMPVSIDPPVVAFASAPDHHTARNIESTHEFVINITPADIIERMWVTARDIPAGENELEAAGLAWTSSRRVKPPRIVEAPGHLECELLRMFEVGDHNLITGSVVSASVRSGAVKEGLLDVESVKPVLHVGGNKFVVGDHVRHVE | soluble
13 | MGSSHHHHHHGGTGENLYFQGGSGMADERFDSMLLAIAQQQQGIDGILDTFFSFLNRKTDFFTQPDMARRSVQQAMSRYLAEAEEKQRKAKEAQAAAQQQQQQQQQSARTSSRVEVLESEEEVNAVAAAQAAEEAAQRKQELERAQREVAEAKAKKEAAGNEAETGATEAFADTGDAPRGLPPTAANGFAYEKYIFSQSLQEAEVRVPLPAVNVKGKQVSIVITSSHLTVGMKGQPPIVDGDLYSKVRAEECMWTIEDGHTVVVTLYKVNSMEWWKTIFQGDPEIDLQKVIPENSKLDDLDSDTRQTVEKMMYDQRQKMMGKPTSDEQKKQDMLRKFMEAHPEMDFSQAKFC | soluble
14 | MGSSHHHHHHGGTGENLYFQGGSGPAREKAIVLIDGPALVHRWYHRWSYTTERYGTSLDVKQFAIKNARFMIATAHSFDPAHMAQHLLSPQTEYAHTPKHNRIIVCFDHGDGGRRQIYADYKANRLQKAVTSEFRLIERVAKKVFADEPRESLLVVPDCDAGLANLNAEADDMIATLAFFNQQNTRPTVVMSHDYDLYQLVDEAKKSYHYDIRTKHLVSERGVMERVGVPPKLVRDFKSLAGDSSDNIPGVNGIGKVRARNLLKKYGDLDGILFKGIKKETGHLGELLNEGAKMALISRQLVDFRMCPKVIKVCESFMRI | not soluble
15 | MGSSHHHHHHGGTGENLYFQGGSGQQQPRPVVAQYAYIELLPLRYTGPAPPPAPACMDPTPDEQYRRGVAEKRAALKQKEARRQMSSSGSGMLASLKSAVSQAVMTMEKGAADVSTRTESQVRQLEYQYDCDRFNLHFHELAENGEVLLADYRCSAMHSGLRVNGHVQITPHYLCFLAETTSSIAKTTDAVMGVFVAARHPTSANDEPRNRPVGIKQVIALADIVSIQPSVVLESIGGQAPFFMLLPAPTVRPTALQLYTQDSKLYQFMNFESLVSRATVALNDVVKGTALDQAYNYLDHAWRDTVNLRSKDV | not soluble
